The chains are these.
T1: Vtc1/Vtc3/Vtc4 complex (VTC complex) (Saccharomyces cerevisiae, UniProt P47075+Q02725)
T1 construct: full-length subunits co-expressed in Expi293F; Vtc1 C-terminal HA, Vtc3 N-terminal 3xFlag, Vtc4 C-terminal 2xStrep; detergent-purified; 3:1:1 pentamer; with Vacuolar transporter chaperone complex subunit 1
T1 sequence (P47075 1-721): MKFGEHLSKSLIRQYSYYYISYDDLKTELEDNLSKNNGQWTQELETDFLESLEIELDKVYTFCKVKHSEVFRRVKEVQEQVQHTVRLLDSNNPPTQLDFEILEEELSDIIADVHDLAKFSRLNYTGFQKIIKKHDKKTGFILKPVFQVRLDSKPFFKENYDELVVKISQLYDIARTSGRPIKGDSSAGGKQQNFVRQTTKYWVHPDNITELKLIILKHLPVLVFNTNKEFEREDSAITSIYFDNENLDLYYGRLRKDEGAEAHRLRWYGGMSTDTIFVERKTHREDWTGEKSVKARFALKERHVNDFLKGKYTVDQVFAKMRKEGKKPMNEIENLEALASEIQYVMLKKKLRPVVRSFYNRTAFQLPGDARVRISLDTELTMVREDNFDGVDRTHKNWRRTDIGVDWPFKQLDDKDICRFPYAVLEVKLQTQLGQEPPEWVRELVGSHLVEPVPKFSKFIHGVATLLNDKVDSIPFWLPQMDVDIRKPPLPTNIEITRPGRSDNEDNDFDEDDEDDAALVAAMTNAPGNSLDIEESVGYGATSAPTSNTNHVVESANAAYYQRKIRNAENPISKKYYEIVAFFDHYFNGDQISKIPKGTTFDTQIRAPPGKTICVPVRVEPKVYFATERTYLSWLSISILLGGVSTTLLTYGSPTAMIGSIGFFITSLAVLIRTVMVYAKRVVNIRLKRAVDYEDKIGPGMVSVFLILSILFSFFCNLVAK
T1 sequence (Q02725 1-835): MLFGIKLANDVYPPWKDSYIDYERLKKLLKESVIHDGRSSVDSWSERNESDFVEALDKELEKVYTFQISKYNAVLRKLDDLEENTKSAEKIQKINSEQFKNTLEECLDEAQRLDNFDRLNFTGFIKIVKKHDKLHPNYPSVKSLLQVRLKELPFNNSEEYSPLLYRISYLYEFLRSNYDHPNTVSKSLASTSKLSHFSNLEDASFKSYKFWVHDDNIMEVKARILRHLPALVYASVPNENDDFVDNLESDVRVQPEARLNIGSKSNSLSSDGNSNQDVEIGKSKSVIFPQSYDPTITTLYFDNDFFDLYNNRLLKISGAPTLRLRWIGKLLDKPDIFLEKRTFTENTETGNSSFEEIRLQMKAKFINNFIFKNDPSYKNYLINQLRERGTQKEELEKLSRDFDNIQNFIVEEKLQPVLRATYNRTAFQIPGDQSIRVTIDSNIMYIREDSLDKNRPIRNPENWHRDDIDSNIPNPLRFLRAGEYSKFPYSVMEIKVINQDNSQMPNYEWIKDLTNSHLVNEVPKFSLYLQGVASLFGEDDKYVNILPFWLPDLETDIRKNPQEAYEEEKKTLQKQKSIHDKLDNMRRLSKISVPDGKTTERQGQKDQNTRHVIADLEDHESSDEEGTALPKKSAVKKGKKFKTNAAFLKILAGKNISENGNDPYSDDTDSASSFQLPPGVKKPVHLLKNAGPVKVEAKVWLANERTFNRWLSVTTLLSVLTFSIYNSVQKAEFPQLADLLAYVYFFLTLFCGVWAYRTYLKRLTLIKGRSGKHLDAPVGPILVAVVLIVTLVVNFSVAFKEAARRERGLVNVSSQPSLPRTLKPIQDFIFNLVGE
T1 sequence (P40046 2-129 partner): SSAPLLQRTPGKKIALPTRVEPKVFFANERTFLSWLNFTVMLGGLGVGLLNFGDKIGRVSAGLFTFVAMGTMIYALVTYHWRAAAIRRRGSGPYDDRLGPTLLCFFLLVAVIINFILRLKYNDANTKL

T2: Vtc3 (Baker's yeast, UniProt Q02725 1-835)
T2 construct: Vtc3, yeast, UniProt Q02725; codon-optimized DNA in the pMlink vector; source: Expi293F cells, transiently cotransfected with the Vtc1 and Vtc4 plasmids; purified as part of the VTC complex (anti-Flag resin, Strep-Tactin resin; SEC for the cryo-EM sample); not shown: 3×Flag, N-terminal, kept
T2 sequence: T1 sequence (Q02725 1-835)

B1: Vtc1 (natural protein, Baker's yeast)
chain: T1 sequence (P40046 2-129 partner)
notes: Vtc1, yeast, UniProt P40046; codon-optimized DNA in the pMlink vector; Three copies of Vtc1 stand in the Vtc1/Vtc3/Vtc4 complex (3:1:1); also called Vtc1A; Vtc1B; source: Expi293F cells, transiently cotransfected with the Vtc3 and Vtc4 plasmids; purified as part of the VTC complex (anti-Flag resin, Strep-Tactin resin; SEC for the cryo-EM sample)
B2: Vtc4_(R264A/R266A/E426N) (natural protein, Baker's yeast)
chain: KFGEHLSKSLIRQYSYYYISYDDLKTELEDNLSKNNGQWTQELETDFLESLEIELDKVYTFCKVKHSEVFRRVKEVQEQVQHTVRLLDSNNPPTQLDFEILEEELSDIIADVHDLAKFSRLNYTGFQKIIKKHDKKTGFILKPVFQVRLDSKPFFKENYDELVVKISQLYDIARTSGRPIKGDSSAGGKQQNFVRQTTKYWVHPDNITELKLIILKHLPVLVFNTNKEFEREDSAITSIYFDNENLDLYYGRLRKDEGAEAHALAWYGGMSTDTIFVERKTHREDWTGEKSVKARFALKERHVNDFLKGKYTVDQVFAKMRKEGKKPMNEIENLEALASEIQYVMLKKKLRPVVRSFYNRTAFQLPGDARVRISLDTELTMVREDNFDGVDRTHKNWRRTDIGVDWPFKQLDDKDICRFPYAVLNVKLQTQLGQEPPEWVRELVGSHLVEPVPKFSKFIHGVATLLNDKVDSIPFWLPQMDVDIRKPPLPTNIEITRPGRSDNEDNDFDEDDEDDAALVAAMTNAPGNSLDIEESVGYGATSAPTSNTNHVVESANAAYYQRKIRNAENPISKKYYEIVAFFDHYFNGDQISKIPKGTTFDTQIRAPPGKTICVPVRVEPKVYFATERTYLSWLSISILLGGVSTTLLTYGSPTAMIGSIGFFITSLAVLIRTVMVYAKRVVNIRLKRAVDYEDKIGPGMVSVFLILSILFSFFCNLVAK
notes: Vtc4, yeast, UniProt P47075; codon-optimized DNA in the pMlink vector; three substitutions in the TTM domain; also called catalytically impaired Vtc4; source: Expi293F cells, transiently cotransfected with the Vtc1 and Vtc3 plasmids; purified as part of the VTC complex with 1 mM InsP6 (anti-Flag resin, Strep-Tactin resin, SEC); not shown: 2×Strep, C-terminal, kept

The target of data set [1] is T1, Vtc1/Vtc3/Vtc4 complex (VTC complex). Kind of data set: polyP synthesis, TBE-PAGE and DAPI. In kind it is biochemical. The conditions noted are these: 15 mM ATP, 10 mM MgCl2, 1 mM MnCl2, 0.5 mM pyrophosphate, InsP6, 27 °C, 4 h.
The target of data set [2] is T2, Vtc3. Description: cryo-EM structure; Vtc1/Vtc3/Vtc4_(R264A/R266A/E426N) complex co-expressed in Expi293F and purified with 1 mM InsP6, 0.02% GDN, 25 mM Tris-HCl pH 8.0, 150 mM NaCl; 3.0 Å. The conditions noted are these: both partners purified.
Data set [3] deals with the molecule itself. The description is as above.
In data set [4] the target is B2. Described as above. The conditions noted are these: both partners purified.

With `Nc1ncnc2c1ncn2[C@@H]1O[C@H](COP(=O)(O)OP(=O)(O)OP(=O)(O)O)[C@@H](O)[C@H]1O` [ATP], the “polyP synthesis, TBE-PAGE and DAPI” value in data set [1] is “we incubated VTC complex with ATP and InsP6”.

For B1, the “stoichiometry N” value in data set [2], in data set [3] and in data set [4] was 3 throughout.

Consider B2, for which the “stoichiometry N” value in data set [2] was determined as 1.
